# Experimental data from PMC5992326, “Structural Basis for the Initiation of Glycosaminoglycan Biosynthesis by Human Xylosyltransferase 1” (Structure(London, England:1993), 2018).
# T1: human xylosyltransferase 1 (XT1), residues 232-959 (human, UniProt Q86Y38 232-959, N-linked glycosylation at N777)
# T1 construct: human xylosyltransferase 1 (XT1), residues 232-959, amplified from a Dharmacon cDNA clone; The vector is a modified pCEP-Pu (pCEP-Pu-N-His-TEV, Pulido et al., 2017); also called peptide O-xylosyltransferase; XYLT1; source: FreeStyle 293-F (HEK293-F) cells, transfected, secreted; purified (HisTrap Excel, HiTrap Heparin, Superdex 200); not shown: His-tag (TEV protease-cleavable), N-terminal, kept
# T1 sequence (looked up): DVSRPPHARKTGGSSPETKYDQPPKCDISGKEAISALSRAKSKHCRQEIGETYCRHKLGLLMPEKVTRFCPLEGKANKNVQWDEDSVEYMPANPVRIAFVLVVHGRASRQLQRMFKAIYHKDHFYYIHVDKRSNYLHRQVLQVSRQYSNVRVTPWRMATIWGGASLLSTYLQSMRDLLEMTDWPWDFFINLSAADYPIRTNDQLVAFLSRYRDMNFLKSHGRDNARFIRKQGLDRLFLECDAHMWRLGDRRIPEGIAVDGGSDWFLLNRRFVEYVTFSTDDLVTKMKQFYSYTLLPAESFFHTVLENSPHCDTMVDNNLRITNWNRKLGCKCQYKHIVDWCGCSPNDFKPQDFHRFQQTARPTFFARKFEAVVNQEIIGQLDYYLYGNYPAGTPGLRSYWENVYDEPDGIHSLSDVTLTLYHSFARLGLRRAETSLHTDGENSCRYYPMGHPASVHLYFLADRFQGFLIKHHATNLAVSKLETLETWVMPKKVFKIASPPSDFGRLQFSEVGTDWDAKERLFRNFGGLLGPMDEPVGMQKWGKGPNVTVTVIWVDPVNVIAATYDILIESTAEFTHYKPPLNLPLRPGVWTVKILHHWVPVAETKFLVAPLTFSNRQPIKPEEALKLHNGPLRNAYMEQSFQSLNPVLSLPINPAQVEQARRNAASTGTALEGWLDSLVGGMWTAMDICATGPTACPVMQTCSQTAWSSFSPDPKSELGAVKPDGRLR
# Target: T1, human xylosyltransferase 1 (XT1), …
# Assay: crystal structure; XT1 crystals (hanging drop, Morpheus condition, pH 7.5) soaked with peptide (0.5 or 0.7 mM); for peptide 2 together with UDP-xylose (3.5 mM), giving a ternary complex
# Conditions: both partners purified
row,binding result,Binder
1,binds,PAAEGSGEQDFT (syndecan 1 around the acceptor serine S206; position 0 is the acceptor serine; source: synthetic peptide (Genscript)) [Peptide 8 (syndecan 1-derived acceptor peptide)]
2,binds,"QEEEGSGGGQGG (bikunin (part of the AMBP precursor) around the acceptor serine S215; position 0 is the acceptor serine; also called active peptide 1; bikunin-derived peptide 1; source: synthetic peptide (Genscript)) [Peptide 1 (bikunin-derived acceptor peptide, wild-type sequence)]"
3,binds,"QEEEGAGGGQGG (bikunin (part of the AMBP precursor) around the acceptor site S215, with the acceptor serine changed to alanine; source: synthetic peptide (Genscript)) [Peptide 2 (inactive bikunin-derived peptide, acceptor serine replaced by alanine)]"
